Source: paper PMC5856775
Each block holds one substance with its values, some of them ahead of it.

Key:
CDC27 [1] = assay: Strep-tactin pull-down, label-free quantification mass spectrometry; details: complexes SUMOylated in vitro, HeLa lysate added; three biological repeats measured in three technical repeats each
ANAPC1 [2] = assay: as above; details: complexes SUMOylated in vitro, HeLa lysate added; three biological repeats measured in three technical repeats each
CDC23 [3] = assay: as above; details: complexes SUMOylated in vitro, HeLa lysate added; three biological repeats measured in three technical repeats each
ANAPC13 [4] = assay: as above; details: complexes SUMOylated in vitro, HeLa lysate added; three biological repeats measured in three technical repeats each
ANAPC2 [5] = assay: as above; details: complexes SUMOylated in vitro, HeLa lysate added; three biological repeats measured in three technical repeats each
CDC16 [6] = assay: as above; details: complexes SUMOylated in vitro, HeLa lysate added; three biological repeats measured in three technical repeats each
CDC26 [7] = assay: as above; details: complexes SUMOylated in vitro, HeLa lysate added; three biological repeats measured in three technical repeats each
ANAPC10 [8] = assay: as above; details: complexes SUMOylated in vitro, HeLa lysate added; three biological repeats measured in three technical repeats each
ANAPC16 [9] = assay: as above; details: complexes SUMOylated in vitro, HeLa lysate added; three biological repeats measured in three technical repeats each
ANAPC5 [10] = assay: as above; details: complexes SUMOylated in vitro, HeLa lysate added; three biological repeats measured in three technical repeats each
ANAPC15 [11] = assay: as above; details: complexes SUMOylated in vitro, HeLa lysate added; three biological repeats measured in three technical repeats each
CDC27 [12] = assay: Strep-tactin pull-down, mass spectrometry spectral counting; details: complexes SUMOylated in vitro, HeLa lysate added; three biological repeats measured in three technical repeats each
ANAPC1 [13] = assay: as above; details: complexes SUMOylated in vitro, HeLa lysate added; three biological repeats measured in three technical repeats each
CDC23 [14] = assay: as above; details: complexes SUMOylated in vitro, HeLa lysate added; three biological repeats measured in three technical repeats each
ANAPC13 [15] = assay: as above; details: complexes SUMOylated in vitro, HeLa lysate added; three biological repeats measured in three technical repeats each
ANAPC2 [16] = assay: as above; details: complexes SUMOylated in vitro, HeLa lysate added; three biological repeats measured in three technical repeats each
CDC16 [17] = assay: as above; details: complexes SUMOylated in vitro, HeLa lysate added; three biological repeats measured in three technical repeats each
CDC26 [18] = assay: as above; details: complexes SUMOylated in vitro, HeLa lysate added; three biological repeats measured in three technical repeats each
ANAPC10 [19] = assay: as above; details: complexes SUMOylated in vitro, HeLa lysate added; three biological repeats measured in three technical repeats each
ANAPC16 [20] = assay: as above; details: complexes SUMOylated in vitro, HeLa lysate added; three biological repeats measured in three technical repeats each
ANAPC5 [21] = assay: as above; details: complexes SUMOylated in vitro, HeLa lysate added; three biological repeats measured in three technical repeats each
ANAPC15 [22] = assay: as above; details: complexes SUMOylated in vitro, HeLa lysate added; three biological repeats measured in three technical repeats each
GPHN = assay: Strep-tactin pull-down from HeLa lysate, label-free quantification mass spectrometry; details: three biological repeats measured in three technical repeats each; -log10(p-value) est. 1.3; read off a plot
FAM91A1 = assay: as above; details: three biological repeats measured in three technical repeats each; -log10(p-value) est. 3.0; read off a plot
TUBA1A = assay: as above; details: three biological repeats measured in three technical repeats each; -log10(p-value) est. 3.7; read off a plot
COPS7A = assay: as above; details: three biological repeats measured in three technical repeats each; -log10(p-value) est. 2.2; read off a plot
UBL4A = assay: as above; details: three biological repeats measured in three technical repeats each; -log10(p-value) est. 1.4; read off a plot
TIMM13 = assay: as above; details: three biological repeats measured in three technical repeats each; -log10(p-value) est. 2.6; read off a plot
RacGAP1 = RacGAP1 (UniProt Q9H0H5); assay: as above; details: three biological repeats measured in three technical repeats each; -log10(p-value) est. 2.8; read off a plot
UniProt Q9H0H5, sequence (Q9H0H5 whole entry, looked up): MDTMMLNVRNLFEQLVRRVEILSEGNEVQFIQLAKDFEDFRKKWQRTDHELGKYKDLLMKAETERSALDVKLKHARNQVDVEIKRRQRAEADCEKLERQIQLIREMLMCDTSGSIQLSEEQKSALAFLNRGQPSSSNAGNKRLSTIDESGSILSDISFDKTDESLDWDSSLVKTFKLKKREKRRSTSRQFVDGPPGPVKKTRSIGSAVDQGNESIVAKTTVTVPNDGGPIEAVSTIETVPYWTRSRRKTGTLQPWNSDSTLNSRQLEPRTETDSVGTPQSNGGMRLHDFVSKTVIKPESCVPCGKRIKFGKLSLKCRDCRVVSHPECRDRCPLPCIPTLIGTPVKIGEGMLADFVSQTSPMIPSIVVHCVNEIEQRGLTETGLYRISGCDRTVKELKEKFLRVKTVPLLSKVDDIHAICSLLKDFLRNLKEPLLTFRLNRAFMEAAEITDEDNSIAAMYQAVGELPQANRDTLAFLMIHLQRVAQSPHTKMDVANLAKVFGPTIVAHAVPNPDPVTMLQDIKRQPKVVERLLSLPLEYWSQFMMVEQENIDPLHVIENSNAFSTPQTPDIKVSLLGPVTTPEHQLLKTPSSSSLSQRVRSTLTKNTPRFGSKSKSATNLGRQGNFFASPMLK

TUBB4A = assay: as above; details: three biological repeats measured in three technical repeats each; -log10(p-value) est. 3.8; read off a plot
Nbla03646 = assay: as above; details: three biological repeats measured in three technical repeats each; -log10(p-value) est. 2.1; read off a plot
SMG8 = assay: as above; details: three biological repeats measured in three technical repeats each; -log10(p-value) est. 2.2; read off a plot
LYST = assay: as above; details: three biological repeats measured in three technical repeats each; -log10(p-value) est. 0.97; read off a plot
KIF18B = KIF18B (UniProt Q86Y91); assay: as above; details: three biological repeats measured in three technical repeats each; -log10(p-value) est. 1.5; read off a plot
UniProt Q86Y91, sequence (Q86Y91 whole entry, looked up): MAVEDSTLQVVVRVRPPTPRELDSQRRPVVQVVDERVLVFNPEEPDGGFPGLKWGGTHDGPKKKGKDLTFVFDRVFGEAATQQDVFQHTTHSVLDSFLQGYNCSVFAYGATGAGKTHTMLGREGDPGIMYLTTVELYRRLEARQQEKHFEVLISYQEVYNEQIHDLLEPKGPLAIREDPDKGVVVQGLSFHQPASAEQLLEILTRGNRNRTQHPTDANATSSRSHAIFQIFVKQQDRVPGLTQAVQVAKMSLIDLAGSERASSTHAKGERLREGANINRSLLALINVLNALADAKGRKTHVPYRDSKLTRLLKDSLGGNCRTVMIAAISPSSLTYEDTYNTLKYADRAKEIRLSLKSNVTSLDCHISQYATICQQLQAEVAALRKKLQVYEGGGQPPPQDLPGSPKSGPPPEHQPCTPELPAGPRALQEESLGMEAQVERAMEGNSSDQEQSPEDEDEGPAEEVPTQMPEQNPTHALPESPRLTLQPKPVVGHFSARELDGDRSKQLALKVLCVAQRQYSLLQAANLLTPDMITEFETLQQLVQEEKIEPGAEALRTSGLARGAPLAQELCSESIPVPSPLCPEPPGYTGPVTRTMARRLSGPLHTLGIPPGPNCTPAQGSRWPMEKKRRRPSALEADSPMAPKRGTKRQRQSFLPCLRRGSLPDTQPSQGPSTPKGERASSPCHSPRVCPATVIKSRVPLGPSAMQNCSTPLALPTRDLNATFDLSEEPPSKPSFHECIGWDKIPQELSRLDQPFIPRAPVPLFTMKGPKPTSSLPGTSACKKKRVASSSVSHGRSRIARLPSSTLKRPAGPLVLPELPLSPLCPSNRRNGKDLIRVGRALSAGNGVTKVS

TUBA3C = assay: as above; details: three biological repeats measured in three technical repeats each; -log10(p-value) est. 4.2; read off a plot
TUBB2B = assay: as above; details: three biological repeats measured in three technical repeats each; -log10(p-value) est. 3.6; read off a plot
HSP90AB4P = assay: as above; details: three biological repeats measured in three technical repeats each; -log10(p-value) est. 1.0; read off a plot
EIF1 = assay: as above; details: three biological repeats measured in three technical repeats each; -log10(p-value) est. 1.2; read off a plot
BAX = assay: as above; details: three biological repeats measured in three technical repeats each; -log10(p-value) est. 1.7; read off a plot
NUP35 = assay: as above; details: three biological repeats measured in three technical repeats each; -log10(p-value) est. 3.6; read off a plot

- other: LFQ ratio (WT/mutant, log2) (CDC27 [1]): 0.36 log2
- other: LFQ ratio (WT/mutant, log2) (ANAPC1 [2]): 0.35 log2
- other: LFQ ratio (WT/mutant, log2) (CDC23 [3]): 0.33 log2
- other: LFQ ratio (WT/mutant, log2) (ANAPC13 [4]): 0.25 log2
- other: LFQ ratio (WT/mutant, log2) (ANAPC2 [5]): 0.4 log2
- other: LFQ ratio (WT/mutant, log2) (CDC16 [6]): 0.34 log2
- other: LFQ ratio (WT/mutant, log2) (CDC26 [7]): 0.49 log2
- other: LFQ ratio (WT/mutant, log2) (ANAPC10 [8]): 0.44 log2
- other: LFQ ratio (WT/mutant, log2) (ANAPC16 [9]): 0.37 log2
- other: LFQ ratio (WT/mutant, log2) (ANAPC5 [10]): 0.22 log2
- other: LFQ ratio (WT/mutant, log2) (ANAPC15 [11]): 0.4 log2
- other: MS/MS ratio (WT/mutant, log2) (CDC27 [12]): 0.24 log2
- other: MS/MS ratio (WT/mutant, log2) (ANAPC1 [13]): 0.26 log2
- other: MS/MS ratio (WT/mutant, log2) (CDC23 [14]): 0.31 log2
- other: MS/MS ratio (WT/mutant, log2) (ANAPC13 [15]): 0.12 log2
- other: MS/MS ratio (WT/mutant, log2) (ANAPC2 [16]): 0.08 log2
- other: MS/MS ratio (WT/mutant, log2) (CDC16 [17]): 0.23 log2
- other: MS/MS ratio (WT/mutant, log2) (CDC26 [18]): 0.17 log2
- other: MS/MS ratio (WT/mutant, log2) (ANAPC10 [19]): 0.34 log2
- other: MS/MS ratio (WT/mutant, log2) (ANAPC16 [20]): 0.19 log2
- other: MS/MS ratio (WT/mutant, log2) (ANAPC5 [21]): 0.17 log2
- other: MS/MS ratio (WT/mutant, log2) (ANAPC15 [22]): 0.2 log2
Substance: Strep-tagged APC4 wild type of the recombinant APC/C, SUMOylated in vitro (from UniProt Q9UJX5;P55854) K772R; K798R

- other: Ratio (log2) of protein intensities, wild-type APC4 / mutant APC4 (GPHN): -1.7 log2
- other: Ratio (log2) of protein intensities, wild-type APC4 / mutant APC4 (FAM91A1): 2.4 log2
- other: Ratio (log2) of protein intensities, wild-type APC4 / mutant APC4 (TUBA1A): -1.5 log2
- other: Ratio (log2) of protein intensities, wild-type APC4 / mutant APC4 (COPS7A): 1 log2
- other: Ratio (log2) of protein intensities, wild-type APC4 / mutant APC4 (UBL4A): -1.4 log2
- other: Ratio (log2) of protein intensities, wild-type APC4 / mutant APC4 (TIMM13): -1.8 log2
- other: Ratio (log2) of protein intensities, wild-type APC4 / mutant APC4 (RacGAP1): -1.6 log2
- other: Ratio (log2) of protein intensities, wild-type APC4 / mutant APC4 (TUBB4A): -1 log2
- other: Ratio (log2) of protein intensities, wild-type APC4 / mutant APC4 (Nbla03646): -2.9 log2
- other: Ratio (log2) of protein intensities, wild-type APC4 / mutant APC4 (SMG8): -1 log2
- other: Ratio (log2) of protein intensities, wild-type APC4 / mutant APC4 (LYST): 3.8 log2
- other: Ratio (log2) of protein intensities, wild-type APC4 / mutant APC4 (KIF18B): 1.8 log2
- other: Ratio (log2) of protein intensities, wild-type APC4 / mutant APC4 (TUBA3C): -1.9 log2
- other: Ratio (log2) of protein intensities, wild-type APC4 / mutant APC4 (TUBB2B): 4.3 log2
- other: Ratio (log2) of protein intensities, wild-type APC4 / mutant APC4 (HSP90AB4P): 2.5 log2
- other: Ratio (log2) of protein intensities, wild-type APC4 / mutant APC4 (EIF1): -1.6 log2
- other: Ratio (log2) of protein intensities, wild-type APC4 / mutant APC4 (BAX): 1.3 log2
- other: Ratio (log2) of protein intensities, wild-type APC4 / mutant APC4 (NUP35): -1.4 log2
Substance: SUMOylated recombinant APC/C containing APC4 wild type (from UniProt Q9UJX5;P55854;Q9UJX3;Q9NYG5;Q9H1A4;Q9UJX6;P30260;Q9UJX4;Q9UJX2;P60006) K772R; K798R
